Assay results published in PMC9482650, “Quantitative fragmentomics allow affinity mapping of interactomes” (Nature Communications, 2022).

T1: APBA1_1, Q02410
T1 sequence (Q02410 651-752, limits assumed, looked up): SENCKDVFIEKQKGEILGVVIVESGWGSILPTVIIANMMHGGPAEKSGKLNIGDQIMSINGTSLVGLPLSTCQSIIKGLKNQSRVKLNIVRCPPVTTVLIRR

T2: DLG3_2, Q92796
T2 sequence (Q92796 221-321, limits assumed, looked up): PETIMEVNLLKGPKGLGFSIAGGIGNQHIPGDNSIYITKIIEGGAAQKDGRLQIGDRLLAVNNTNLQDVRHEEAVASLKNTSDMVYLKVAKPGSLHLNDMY

T3: FRMPD1, Q5SYB0
T3 sequence (Q5SYB0 52-145, limits assumed, looked up): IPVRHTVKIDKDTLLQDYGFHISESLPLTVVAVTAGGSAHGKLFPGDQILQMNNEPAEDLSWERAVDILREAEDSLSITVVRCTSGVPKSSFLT

T4: GRIP1_3, Q9Y3R0
T4 sequence (Q9Y3R0 247-346, limits assumed, looked up): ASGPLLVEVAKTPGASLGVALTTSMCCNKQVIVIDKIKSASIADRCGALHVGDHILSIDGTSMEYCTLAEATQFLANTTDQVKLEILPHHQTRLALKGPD

T5: GRIP1_5, Q9Y3R0
T5 sequence (Q9Y3R0 568-668, limits assumed, looked up): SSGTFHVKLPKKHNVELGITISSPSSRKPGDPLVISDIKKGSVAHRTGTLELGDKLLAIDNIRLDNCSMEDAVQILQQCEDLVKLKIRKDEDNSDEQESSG

T6: LIN7A, O14910
T6 sequence (O14910 103-200, limits assumed, looked up): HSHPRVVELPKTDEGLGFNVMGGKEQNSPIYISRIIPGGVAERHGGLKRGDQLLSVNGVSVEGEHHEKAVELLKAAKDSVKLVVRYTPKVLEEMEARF

T7: MPDZ_10, O75970
T7 sequence (O75970 1624-1722, limits assumed, looked up): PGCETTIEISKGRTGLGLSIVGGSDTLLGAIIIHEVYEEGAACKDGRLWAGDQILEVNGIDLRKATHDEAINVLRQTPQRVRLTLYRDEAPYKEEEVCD

T8: MPDZ_5, O75970
T8 sequence (O75970 695-796, limits assumed, looked up): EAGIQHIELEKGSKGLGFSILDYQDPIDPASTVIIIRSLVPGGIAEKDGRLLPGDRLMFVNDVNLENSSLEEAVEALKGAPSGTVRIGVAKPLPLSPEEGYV

T9: NHERF3_3, Q5T2W1
T9 sequence (Q5T2W1 238-333, limits assumed, looked up): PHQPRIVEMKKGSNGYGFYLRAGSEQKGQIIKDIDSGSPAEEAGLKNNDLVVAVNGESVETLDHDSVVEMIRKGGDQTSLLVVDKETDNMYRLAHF

T10: PARD3B_1, Q8TEW8
T10 sequence (Q8TEW8 196-299, limits assumed, looked up): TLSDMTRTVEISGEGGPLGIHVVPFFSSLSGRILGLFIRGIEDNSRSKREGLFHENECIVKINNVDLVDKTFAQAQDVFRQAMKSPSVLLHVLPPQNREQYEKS

T11: SNTG1, Q9NSN8
T11 sequence (Q9NSN8 52-150, limits assumed, looked up): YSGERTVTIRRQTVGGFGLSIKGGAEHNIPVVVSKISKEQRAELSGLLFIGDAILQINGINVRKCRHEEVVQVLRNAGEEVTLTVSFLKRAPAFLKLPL


Assays:
Assay in all cases: holdup assay
Parameters in all cases: key: below the threshold = too weak to quantify, mostly under pKd 3.1 to 4
Details in all cases: plain residues with an end cap or a label only (N-terminal biotin on a linker: ttds)
[1] = biological target: T1, APBA1_1, Q02410
[2] = biological target: DLG1_1, Q12959
[3] = biological target: T2, DLG3_2, Q92796
[4] = biological target: DLG4_1, P78352
[5] = biological target: T3, FRMPD1, Q5SYB0
[6] = biological target: FRMPD2_1, Q68DX3
[7] = biological target: FRMPD3, Q5JV73
[8] = biological target: GRID2IP_1, A4D2P6
[9] = biological target: T4, GRIP1_3, Q9Y3R0
[10] = biological target: T5, GRIP1_5, Q9Y3R0
[11] = biological target: GRIP2_6, Q9C0E4
[12] = biological target: HTRA2, O43464
[13] = biological target: LDB3, O75112
[14] = biological target: T6, LIN7A, O14910
[15] = biological target: LNX1_2, Q8TBB1
[16] = biological target: MAGI2_3, Q86UL8
[17] = biological target: MAGI2_5, Q86UL8
[18] = biological target: T7, MPDZ_10, O75970
[19] = biological target: T8, MPDZ_5, O75970
[20] = biological target: T9, NHERF3_3, Q5T2W1
[21] = biological target: NHERF4_1, Q86UT5-2
[22] = biological target: NHERF4_4, Q86UT5
[23] = biological target: T10, PARD3B_1, Q8TEW8
[24] = biological target: PDLIM1, O00151
[25] = biological target: PICK1, Q9NRD5
[26] = biological target: SCRIB_2, Q14160
[27] = biological target: T11, SNTG1, Q9NSN8

Chain of DLG4_1, P78352 (P78352 62-152): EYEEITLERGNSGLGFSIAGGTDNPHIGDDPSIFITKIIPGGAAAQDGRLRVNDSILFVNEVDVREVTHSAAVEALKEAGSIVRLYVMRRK
Chain of LDB3, O75112 (O75112 1-94): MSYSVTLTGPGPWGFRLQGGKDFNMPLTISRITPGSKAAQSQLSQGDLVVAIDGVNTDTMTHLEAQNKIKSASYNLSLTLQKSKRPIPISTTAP
Chain of NHERF4_1, Q86UT5-2 (Q86UT5 other isoform, or with tags, fused parts or gaps): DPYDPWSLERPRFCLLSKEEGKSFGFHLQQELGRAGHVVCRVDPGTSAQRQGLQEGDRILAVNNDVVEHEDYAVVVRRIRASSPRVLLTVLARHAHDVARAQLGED
Chain of HTRA2, O43464 (O43464 355-458): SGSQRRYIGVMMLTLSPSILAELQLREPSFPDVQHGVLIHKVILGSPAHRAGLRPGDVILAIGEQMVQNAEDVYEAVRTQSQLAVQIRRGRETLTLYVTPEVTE
Chain of FRMPD3, Q5JV73 (Q5JV73 12-100): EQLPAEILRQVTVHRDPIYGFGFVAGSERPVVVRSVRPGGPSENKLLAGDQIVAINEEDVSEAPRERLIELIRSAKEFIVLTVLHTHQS
Chain of SCRIB_2, Q14160 (Q14160 857-960): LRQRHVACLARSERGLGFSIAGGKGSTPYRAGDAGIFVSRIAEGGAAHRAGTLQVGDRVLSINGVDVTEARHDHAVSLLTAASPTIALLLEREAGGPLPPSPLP
Chain of NHERF4_4, Q86UT5 (Q86UT5 464-550): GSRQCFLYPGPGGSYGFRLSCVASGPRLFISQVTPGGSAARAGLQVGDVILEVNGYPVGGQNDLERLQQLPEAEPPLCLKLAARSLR
Chain of GRIP2_6, Q9C0E4 (Q9C0E4 648-740): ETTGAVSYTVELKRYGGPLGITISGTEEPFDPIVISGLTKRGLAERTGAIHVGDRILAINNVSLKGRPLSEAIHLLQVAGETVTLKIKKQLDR
Chain of FRMPD2_1, Q68DX3 (Q68DX3 770-861): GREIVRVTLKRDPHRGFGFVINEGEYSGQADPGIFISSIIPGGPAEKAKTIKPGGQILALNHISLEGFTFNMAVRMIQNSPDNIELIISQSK
Chain of GRID2IP_1, A4D2P6 (A4D2P6 1-87): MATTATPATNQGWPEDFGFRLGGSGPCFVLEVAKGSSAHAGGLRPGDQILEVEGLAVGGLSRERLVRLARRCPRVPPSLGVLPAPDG
Chain of PICK1, Q9NRD5 (Q9NRD5 17-115): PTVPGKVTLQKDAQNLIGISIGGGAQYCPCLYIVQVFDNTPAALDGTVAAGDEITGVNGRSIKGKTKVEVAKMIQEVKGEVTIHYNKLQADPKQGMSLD
Chain of MAGI2_5, Q86UL8 (Q86UL8 915-1017): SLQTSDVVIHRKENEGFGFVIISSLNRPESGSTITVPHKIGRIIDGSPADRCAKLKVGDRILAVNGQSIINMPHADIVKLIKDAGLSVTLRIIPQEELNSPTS
Chain of LNX1_2, Q8TBB1 (Q8TBB1 371-470): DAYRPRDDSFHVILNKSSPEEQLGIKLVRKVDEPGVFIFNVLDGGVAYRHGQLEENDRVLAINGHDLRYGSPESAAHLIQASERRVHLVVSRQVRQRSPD
Chain of PDLIM1, O00151 (O00151 1-87): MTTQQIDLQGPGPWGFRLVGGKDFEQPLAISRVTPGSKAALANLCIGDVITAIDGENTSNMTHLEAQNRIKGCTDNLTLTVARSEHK
Chain of MAGI2_3, Q86UL8 (Q86UL8 600-682): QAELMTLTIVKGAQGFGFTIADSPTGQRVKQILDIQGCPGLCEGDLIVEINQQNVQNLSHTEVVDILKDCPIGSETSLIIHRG

| Binder | pKd [1] | pKd [2] | pKd [3] | pKd [4] | pKd [5] | pKd [6] | pKd [7] | pKd [8] | pKd [9] | pKd [10] | pKd [11] | pKd [12] | pKd [13] | pKd [14] | pKd [15] | pKd [16] | pKd [17] | pKd [18] | pKd [19] | pKd [20] | further results |
| --- | --- | --- | --- | --- | --- | --- | --- | --- | --- | --- | --- | --- | --- | --- | --- | --- | --- | --- | --- | --- | --- |
| IYVPEAQTRL [DLGAP4, Q9Y2H0] | below the threshold | below the threshold | below the threshold | below the threshold | below the threshold | below the threshold | below the threshold | below the threshold | below the threshold | below the threshold | below the threshold | below the threshold | below the threshold | below the threshold | below the threshold | below the threshold | 3.82 | below the threshold | below the threshold | 4.14 | pKd [21]: 3.65; pKd [22]: below the threshold; pKd [23]: 4.16; pKd [24]: below the threshold; pKd [25]: below the threshold; pKd [26]: below the threshold; pKd [27]: below the threshold |
| VLRLQSETSV [VANGL1, Q8TAA9] | below the threshold | 4.45 | 4.64 | 4.4 | below the threshold | below the threshold | below the threshold | below the threshold | below the threshold | below the threshold | below the threshold | below the threshold | below the threshold | below the threshold | below the threshold | below the threshold | 4 | below the threshold | below the threshold | below the threshold | pKd [21]: below the threshold; pKd [22]: below the threshold; pKd [23]: below the threshold; pKd [24]: below the threshold; pKd [25]: below the threshold; pKd [26]: 4.72; pKd [27]: 4.67 |
| TVASEKESVM [SLC1A5, Q15758] | below the threshold | below the threshold | 3.55 | 3.56 | below the threshold | below the threshold | below the threshold | below the threshold | below the threshold | 3.55 | below the threshold | below the threshold | below the threshold | below the threshold | below the threshold | below the threshold | below the threshold | below the threshold | below the threshold | below the threshold | pKd [21]: below the threshold; pKd [22]: below the threshold; pKd [23]: 3.61; pKd [24]: below the threshold; pKd [25]: below the threshold; pKd [26]: below the threshold; pKd [27]: below the threshold |
| PKTPPTDTSV [KIR3DL3, Q8N743] | below the threshold | 4.02 | 4.14 | 4.04 | below the threshold | below the threshold | below the threshold | below the threshold | below the threshold | below the threshold | below the threshold | below the threshold | below the threshold | below the threshold | below the threshold | below the threshold | below the threshold | below the threshold | below the threshold | below the threshold | pKd [21]: below the threshold; pKd [22]: below the threshold; pKd [23]: below the threshold; pKd [24]: below the threshold; pKd [25]: below the threshold; pKd [26]: 4.08; pKd [27]: below the threshold |
